# Test results: US20170145379
# What was measured:
# [1] = test system: T1, 18-mer peptide PQLPYPQPQLPYPQPQPF
# T1 sequence: PQLPYPQPQLPYPQPQPF
# [2] = test system: T2, 33-mer peptide LQLQPFPQPQLPYPQPQLPYPQPQLPYPQPQPF from α2-gliadin
# T2 sequence: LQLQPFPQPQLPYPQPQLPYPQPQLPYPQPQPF
Substance,Km (protease activity against 18-mer peptide) [1],Vmax (protease activity against 18-mer peptide) (mg 18-mer peptide/ml) [1],in vitro degradation of the peptide (protease activity) [2]
"elongation factor G from Streptococcus thermophilus (strain P02638 F9 = DN_001343, CNCM I-2776), purified from culture supernatant",0.794 mg 18-mer peptide/m1,1.5,The protease able to degrade in vitro the 33-mer as well as the 18-mer peptide
"elongation factor Tu from Lactobacillus casei (strain P02503 A1 = DN_114001, CNCM I-1518), purified from culture supernatant",0.643 mg 18-mer peptide/ml,1.27,The protease able to degrade in vitro the 33-mer as well as the 18-mer peptide
